Experimental findings from US20250171562A1 (ALK ABELL, published 2025) are described below.

B1: CIgG4B2A1(G4S)3 (Fc fusion)
chain 1: GPPCPPCPAPEFLGGPSVFLFPPKPKDTLMISRTPEVTCVVVDVSQEDPEVQFNWYVDGVEVHNAKTKPREEQFNSTYRVVSVLTVLHQDWLNGKEYKCKVSNKGLPSSIEKTISKAKGQPREPQVYTLPPCQEEMTKNQVSLWCLVKGFYPSDIAVEWESNGQPENNYKTTPPVLDSDGSFFLYSRLTVDKSRWQEGNVFSCSVMHEALHNHYTQKSLSLSLGKGGGGSGGGGSGGGGSQVQLVESGGGLVQAGGSLRLSCAVFGSTFSNNVADWYRQAPGKQRELVARISASGATREYGDSVKGRFTISRDDAKNTMYLQMNNLKPEDTAVYRCHKIEWEDLSRKDYWGQGTQVTVS
chain 2: GPPCPPCPAPEFLGGPSVFLFPPKPKDTLMISRTPEVTCVVVDVSQEDPEVQFNWYVDGVEVHNAKTKPREEQFNSTYRVVSVLTVLHQDWLNGKEYKCKVSNKGLPSSIEKTISKAKGQPREPQVCTLPPSQEEMTKNQVSLSCAVKGFYPSDIAVEWESNGQPENNYKTTPPVLDSDGSFFLVSRLTVDKSRWQEGNVFSCSVMHEALHNHYTQKSLSLSLGKGGGGSGGGGSGGGGSEVQLLESGGGLVQPGGSLRLSCAASGFTFGNYDMAWVRQAPGKRPEWVSSIDTGGDITHYADSVKGRFTISRDNAKNTLYLQMNSLRPEDTAVYWCATDEEYALGPNEFDYYGQGTLVTVSS
B2: CIgG4B3A1(G4S)3 (Fc fusion)
chain 1: GPPCPPCPAPEFLGGPSVFLFPPKPKDTLMISRTPEVTCVVVDVSQEDPEVQFNWYVDGVEVHNAKTKPREEQFNSTYRVVSVLTVLHQDWLNGKEYKCKVSNKGLPSSIEKTISKAKGQPREPQVYTLPPCQEEMTKNQVSLWCLVKGFYPSDIAVEWESNGQPENNYKTTPPVLDSDGSFFLYSRLTVDKSRWQEGNVFSCSVMHEALHNHYTQKSLSLSLGKGGGGSGGGGSGGGGSDVQLQESGGGLVQAGGSLRLSCAASGFIFRLAGMSWVRQAPGKGFEWVSGITMDGSTTNYADSVKGRFTISRDNSKNRLYLQMNSLKPEDTAVYYCARGAKGGYNDPRGQGTQVTVS
chain 2: B1 chain 2
notes: also called CIgG4B3A1(GS)3
B3: CIgG4B2A1(G4S)2 (Fc fusion)
chain 1: GPPCPPCPAPEFLGGPSVFLFPPKPKDTLMISRTPEVTCVVVDVSQEDPEVQFNWYVDGVEVHNAKTKPREEQFNSTYRVVSVLTVLHQDWLNGKEYKCKVSNKGLPSSIEKTISKAKGQPREPQVYTLPPCQEEMTKNQVSLWCLVKGFYPSDIAVEWESNGQPENNYKTTPPVLDSDGSFFLYSRLTVDKSRWQEGNVFSCSVMHEALHNHYTQKSLSLSLGKGGGGSGGGGSQVQLVESGGGLVQAGGSLRLSCAVFGSTFSNNVADWYRQAPGKQRELVARISASGATREYGDSVKGRFTISRDDAKNTMYLQMNNLKPEDTAVYRCHKIEWEDLSRKDYWGQGTQVTVS
chain 2: GPPCPPCPAPEFLGGPSVFLFPPKPKDTLMISRTPEVTCVVVDVSQEDPEVQFNWYVDGVEVHNAKTKPREEQFNSTYRVVSVLTVLHQDWLNGKEYKCKVSNKGLPSSIEKTISKAKGQPREPQVCTLPPSQEEMTKNQVSLSCAVKGFYPSDIAVEWESNGQPENNYKTTPPVLDSDGSFFLVSRLTVDKSRWQEGNVFSCSVMHEALHNHYTQKSLSLSLGKGGGGSGGGGSEVQLLESGGGLVQPGGSLRLSCAASGFTFGNYDMAWVRQAPGKRPEWVSSIDTGGDITHYADSVKGRFTISRDNAKNTLYLQMNSLRPEDTAVYWCATDEEYALGPNEFDYYGQGTLVTVSS
B4: CIgG4B3A1(G4S)2 (Fc fusion)
chain 1: GPPCPPCPAPEFLGGPSVFLFPPKPKDTLMISRTPEVTCVVVDVSQEDPEVQFNWYVDGVEVHNAKTKPREEQFNSTYRVVSVLTVLHQDWLNGKEYKCKVSNKGLPSSIEKTISKAKGQPREPQVYTLPPCQEEMTKNQVSLWCLVKGFYPSDIAVEWESNGQPENNYKTTPPVLDSDGSFFLYSRLTVDKSRWQEGNVFSCSVMHEALHNHYTQKSLSLSLGKGGGGSGGGGSDVQLQESGGGLVQAGGSLRLSCAASGFIFRLAGMSWVRQAPGKGFEWVSGITMDGSTTNYADSVKGRFTISRDNSKNRLYLQMNSLKPEDTAVYYCARGAKGGYNDPRGQGTQVTVS
chain 2: B3 chain 2
notes: also called CIgG4B3A1(GS)2
B5: CIgG4B3A1(RS) (Fc fusion)
chain 1: GPPCPPCPAPEFLGGPSVFLFPPKPKDTLMISRTPEVTCVVVDVSQEDPEVQFNWYVDGVEVHNAKTKPREEQFNSTYRVVSVLTVLHQDWLNGKEYKCKVSNKGLPSSIEKTISKAKGQPREPQVYTLPPCQEEMTKNQVSLWCLVKGFYPSDIAVEWESNGQPENNYKTTPPVLDSDGSFFLYSRLTVDKSRWQEGNVFSCSVMHEALHNHYTQKSLSLSLGKRSDVQLQESGGGLVQAGGSLRLSCAASGFIFRLAGMSWVRQAPGKGFEWVSGITMDGSTTNYADSVKGRFTISRDNSKNRLYLQMNSLKPEDTAVYYCARGAKGGYNDPRGQGTQVTVS
chain 2: GPPCPPCPAPEFLGGPSVFLFPPKPKDTLMISRTPEVTCVVVDVSQEDPEVQFNWYVDGVEVHNAKTKPREEQFNSTYRVVSVLTVLHQDWLNGKEYKCKVSNKGLPSSIEKTISKAKGQPREPQVCTLPPSQEEMTKNQVSLSCAVKGFYPSDIAVEWESNGQPENNYKTTPPVLDSDGSFFLVSRLTVDKSRWQEGNVFSCSVMHEALHNHYTQKSLSLSLGKRSEVQLLESGGGLVQPGGSLRLSCAASGFTFGNYDMAWVRQAPGKRPEWVSSIDTGGDITHYADSVKGRFTISRDNAKNTLYLQMNSLRPEDTAVYWCATDEEYALGPNEFDYYGQGTLVTVSS
B6: CIgG4D1A1(RS) (Fc fusion)
chain 1: GPPCPPCPAPEFLGGPSVFLFPPKPKDTLMISRTPEVTCVVVDVSQEDPEVQFNWYVDGVEVHNAKTKPREEQFNSTYRVVSVLTVLHQDWLNGKEYKCKVSNKGLPSSIEKTISKAKGQPREPQVYTLPPCQEEMTKNQVSLWCLVKGFYPSDIAVEWESNGQPENNYKTTPPVLDSDGSFFLYSRLTVDKSRWQEGNVFSCSVMHEALHNHYTQKSLSLSLGKRSDVQLQESGGGLVQAGGSLRLSCAASGLTFSRCDMGWFRQAPGKEREFVARISANGASTHYADFVKGRFTISRDNAKNTVYLQMNYLKPEDTAVYICAAARVPVTWQLYDYWGQGTQVTVS
chain 2: B5 chain 2
B7: CIgG4B3A1(G4S)1 (Fc fusion)
chain 1: GPPCPPCPAPEFLGGPSVFLFPPKPKDTLMISRTPEVTCVVVDVSQEDPEVQFNWYVDGVEVHNAKTKPREEQFNSTYRVVSVLTVLHQDWLNGKEYKCKVSNKGLPSSIEKTISKAKGQPREPQVYTLPPCQEEMTKNQVSLWCLVKGFYPSDIAVEWESNGQPENNYKTTPPVLDSDGSFFLYSRLTVDKSRWQEGNVFSCSVMHEALHNHYTQKSLSLSLGKGGGGSDVQLQESGGGLVQAGGSLRLSCAASGFIFRLAGMSWVRQAPGKGFEWVSGITMDGSTTNYADSVKGRFTISRDNSKNRLYLQMNSLKPEDTAVYYCARGAKGGYNDPRGQGTQVTVS
chain 2: GPPCPPCPAPEFLGGPSVFLFPPKPKDTLMISRTPEVTCVVVDVSQEDPEVQFNWYVDGVEVHNAKTKPREEQFNSTYRVVSVLTVLHQDWLNGKEYKCKVSNKGLPSSIEKTISKAKGQPREPQVCTLPPSQEEMTKNQVSLSCAVKGFYPSDIAVEWESNGQPENNYKTTPPVLDSDGSFFLVSRLTVDKSRWQEGNVFSCSVMHEALHNHYTQKSLSLSLGKGGGGSEVQLLESGGGLVQPGGSLRLSCAASGFTFGNYDMAWVRQAPGKRPEWVSSIDTGGDITHYADSVKGRFTISRDNAKNTLYLQMNSLRPEDTAVYWCATDEEYALGPNEFDYYGQGTLVTVSS
notes: also called CIgG4B3A1(GS)1
B8: CIgG4D1A1(G4S)1 (Fc fusion)
chain 1: GPPCPPCPAPEFLGGPSVFLFPPKPKDTLMISRTPEVTCVVVDVSQEDPEVQFNWYVDGVEVHNAKTKPREEQFNSTYRVVSVLTVLHQDWLNGKEYKCKVSNKGLPSSIEKTISKAKGQPREPQVYTLPPCQEEMTKNQVSLWCLVKGFYPSDIAVEWESNGQPENNYKTTPPVLDSDGSFFLYSRLTVDKSRWQEGNVFSCSVMHEALHNHYTQKSLSLSLGKGGGGSDVQLQESGGGLVQAGGSLRLSCAASGLTFSRCDMGWFRQAPGKEREFVARISANGASTHYADFVKGRFTISRDNAKNTVYLQMNYLKPEDTAVYICAAARVPVTWQLYDYWGQGTQVTVS
chain 2: B7 chain 2

In general, EC50 refers to the concentration needed to bring the measured effect to its halfway point.

Where only a bound is given, the exact number is not on record here.

The assay deals with T1, recombinant human IgE (human, UniProt P01854-1 1-428).
T1 construct: made in-house (ALK); preloaded on immobilised FcεRIα in the displacement ELISA
T1 sequence (P01854 other isoform, or with tags, fused parts or gaps): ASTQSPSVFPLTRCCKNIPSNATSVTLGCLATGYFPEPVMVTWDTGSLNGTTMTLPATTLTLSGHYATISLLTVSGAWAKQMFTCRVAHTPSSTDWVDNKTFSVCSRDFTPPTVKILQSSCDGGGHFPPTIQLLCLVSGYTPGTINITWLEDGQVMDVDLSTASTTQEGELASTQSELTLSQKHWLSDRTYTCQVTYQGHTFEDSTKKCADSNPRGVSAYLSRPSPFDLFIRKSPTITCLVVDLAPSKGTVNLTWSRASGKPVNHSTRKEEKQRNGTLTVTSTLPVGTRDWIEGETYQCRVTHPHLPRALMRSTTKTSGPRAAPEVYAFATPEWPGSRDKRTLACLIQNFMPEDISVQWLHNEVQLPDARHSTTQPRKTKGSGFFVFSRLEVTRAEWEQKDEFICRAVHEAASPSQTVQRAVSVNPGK
Description: IgE-FcεRIα displacement ELISA. Summed up: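 Streptavidin-coated plates carried site-specifically biotinylated recombinant human FcεRIα, loaded with recombinant human IgE at 13 ng/ml. sdAbs in a pM–μM series were added for 1 h, and displaced IgE was washed off. Percent displacement was the signal reduction versus the no-sdAb control, giving EC50 and maximal effect.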
Turning to B1, the EC50 is 2.1 nM and the Max effect was greater than 95%. For B2 the same measures were 5.4 nM and 95%. For B3, the EC50 was found to be 0.7 nM and the Max effect is greater than 95%. B4: the EC50 is 32 nM and the Max effect stood at 85%. Take B5: the Max effect worked out at 0%. Still for that read-out and setting: under B6 stands 30%; under B7, 45%. With B8, the EC50 turned out to be 52 nM and the Max effect worked out at 90%.
